{"source": "the RNAGym collection of RNA variant scans (doi:10.7554/elife.80360)", "parents": {"B1": {"name": "Hairpin Ribozyme (parent)", "chain": "GUCCUCUUUCACGUGCGCGUGAAAGAGAGAAGUGAACCAGAGAAACACACGUUGUGGUAUAUUACCUGGUA"}}}
{"variants_of": "B1", "assay": "self-cleavage, relative activity (ratio to wild type); higher = more cleavage; co-transcriptional"}
{"variant": "A45U", "self-cleavage": 0.14}
{"variant": "A45G", "self-cleavage": 0.177}
{"variant": "A45C", "self-cleavage": 0.154}
{"variant": "C46U C48U", "self-cleavage": 0.139}
{"variant": "C46U C48A", "self-cleavage": 0.203}
{"variant": "A43U G69U", "self-cleavage": 0.174}
{"variant": "A45C U55G", "self-cleavage": 0.0998}
{"variant": "A45C U55C", "self-cleavage": 0.244}
{"variant": "C46U G69C", "self-cleavage": 0.138}
{"variant": "A43U U60A", "self-cleavage": 0.255}
{"variant": "A43U A59G", "self-cleavage": 0.166}
{"variant": "A43U A59U", "self-cleavage": 0.204}
{"variant": "C46G A49G", "self-cleavage": 0.137}
{"variant": "A47C A59G", "self-cleavage": 0.0267}
{"variant": "A45G A61G", "self-cleavage": 0.169}
{"variant": "A45G A61U", "self-cleavage": 0.0962}
{"variant": "A45C U60A", "self-cleavage": 0.174}
{"variant": "A47G U53G", "self-cleavage": 0.338}
{"variant": "C46U A64G", "self-cleavage": 0.021}
{"variant": "C46G U55A", "self-cleavage": 0.142}
{"variant": "A44G U58A", "self-cleavage": 0.17}
{"variant": "A44G G68U", "self-cleavage": 0.173}
{"variant": "A47G G57C", "self-cleavage": 0.159}
{"variant": "A44U U70G", "self-cleavage": 0.201}
{"variant": "A47C A64U", "self-cleavage": 0.218}
{"variant": "A44U A49U", "self-cleavage": 0.109}
{"variant": "A44U A49G", "self-cleavage": 0.0827}
{"variant": "A47G A71G", "self-cleavage": 0.142}
{"variant": "C46G U53G", "self-cleavage": 0.186}
{"variant": "A47G U70A", "self-cleavage": 0.204}
{"variant": "C46G G51A", "self-cleavage": 0.154}
{"variant": "C46G G51U", "self-cleavage": 0.164}
{"variant": "C46G G51C", "self-cleavage": 0.0873}
{"variant": "A45U G56A", "self-cleavage": 0.166}
{"variant": "A44G C50G", "self-cleavage": 0.164}
{"variant": "C46G C50A", "self-cleavage": 0.0593}
{"variant": "C46G C50G", "self-cleavage": 0.217}
{"variant": "C46U A49C", "self-cleavage": 0.201}
{"variant": "A45C G54A", "self-cleavage": 0.132}
{"variant": "A45U G51A", "self-cleavage": 0.075}
{"variant": "A44G C66A", "self-cleavage": 0.022}
{"variant": "A44C U62G", "self-cleavage": 0.304}
{"variant": "A47C G51U", "self-cleavage": 0.392}
{"variant": "A47C G51A", "self-cleavage": 0.303}
{"variant": "A44G G54A", "self-cleavage": 0.151}
{"variant": "A44C G69A", "self-cleavage": 0.121}
{"variant": "A47G G54C", "self-cleavage": 0.266}
{"variant": "A47G G54A", "self-cleavage": 0.177}
{"variant": "A47G U60C", "self-cleavage": 0.135}
{"variant": "A47G U60A", "self-cleavage": 0.139}
{"variant": "C46U U58A", "self-cleavage": 0.0874}
{"variant": "C46A G54C", "self-cleavage": 0.129}
{"variant": "C46A G54A", "self-cleavage": 0.126}
{"variant": "A43G U60G", "self-cleavage": 0.0362}
{"variant": "A43G U60A", "self-cleavage": 0.202}
{"variant": "A45U G57C", "self-cleavage": 0.15}
{"variant": "C46G U63C", "self-cleavage": 0.103}
{"variant": "C46G U63G", "self-cleavage": 0.0876}
{"variant": "A47C C50G", "self-cleavage": 0.0249}
{"variant": "C46G U60C", "self-cleavage": 0.0722}
{"variant": "A44U A61U", "self-cleavage": 0.124}
{"variant": "A44U A61C", "self-cleavage": 0.0833}
{"variant": "A47C U58G", "self-cleavage": 0.172}
{"variant": "A45C C48U", "self-cleavage": 0.145}
{"variant": "A45C C50U", "self-cleavage": 0.0931}
{"variant": "A43U A49U", "self-cleavage": 0.27}
{"variant": "A44G U60C", "self-cleavage": 0.0999}
{"variant": "A44G U60G", "self-cleavage": 0.0699}
{"variant": "C46U G54A", "self-cleavage": 0.237}
{"variant": "A43U U58G", "self-cleavage": 0.0898}
{"variant": "A43U U58A", "self-cleavage": 0.0678}
{"variant": "C46A A47G", "self-cleavage": 0.133}
{"variant": "C46A A47U", "self-cleavage": 0.199}
{"variant": "A44U U53G", "self-cleavage": 0.159}
{"variant": "A44U U53A", "self-cleavage": 0.079}
{"variant": "C46G U58G", "self-cleavage": 0.112}
{"variant": "C46G U58A", "self-cleavage": 0.256}
{"variant": "C46G U58C", "self-cleavage": 0.308}
{"variant": "A45G G56A", "self-cleavage": 0.183}
{"variant": "A47C C48G", "self-cleavage": 0.0552}
{"variant": "A47C C48U", "self-cleavage": 0.0858}
{"variant": "A44C G51U", "self-cleavage": 0.114}
{"variant": "A44C G51A", "self-cleavage": 0.0817}
{"variant": "A47C G56C", "self-cleavage": 0.161}
{"variant": "A43U U52C", "self-cleavage": 0.143}
{"variant": "A43U U52G", "self-cleavage": 0.139}
{"variant": "A45G A59C", "self-cleavage": 0.151}
{"variant": "A47C G54C", "self-cleavage": 0.228}
{"variant": "A47C G54U", "self-cleavage": 0.241}
{"variant": "A43U G68A", "self-cleavage": 0.0877}
{"variant": "A43U G68U", "self-cleavage": 0.223}
{"variant": "C46A A49C", "self-cleavage": 0.156}
{"variant": "A44C U52G", "self-cleavage": 0.203}
{"variant": "A47G C66A", "self-cleavage": 0.138}
{"variant": "A45C G51C", "self-cleavage": 0.0857}
{"variant": "A43U U63C", "self-cleavage": 0.219}
{"variant": "A43U U63A", "self-cleavage": 0.107}
{"variant": "A47C U62A", "self-cleavage": 0.195}
{"variant": "A45G U58C", "self-cleavage": 0.269}
{"variant": "A43G U58C", "self-cleavage": 0.12}
{"variant": "A43G U58G", "self-cleavage": 0.212}
{"variant": "A45C A47U", "self-cleavage": 0.212}
{"variant": "A45C A47C", "self-cleavage": 0.198}
{"variant": "A44U G54U", "self-cleavage": 0.0855}
{"variant": "A44U G54C", "self-cleavage": 0.0888}
{"variant": "C46A A71G", "self-cleavage": 0.24}
{"variant": "A43G U53A", "self-cleavage": 0.152}
{"variant": "A43G U53C", "self-cleavage": 0.107}
{"variant": "C46G G69C", "self-cleavage": 0.123}
{"variant": "C46G G69A", "self-cleavage": 0.179}
{"variant": "A44G U63A", "self-cleavage": 0.207}
{"variant": "A47G U55C", "self-cleavage": 0.207}
{"variant": "A47C U52A", "self-cleavage": 0.407}
{"variant": "A43G G56A", "self-cleavage": 0.0841}
{"variant": "A43U A45U", "self-cleavage": 0.164}
{"variant": "A44U A64G", "self-cleavage": 0.202}
{"variant": "A47G A61C", "self-cleavage": 0.132}
{"variant": "A47G A61U", "self-cleavage": 0.195}
{"variant": "A45U C46A", "self-cleavage": 0.125}
{"variant": "A45U C46G", "self-cleavage": 0.241}
{"variant": "A44U A45U", "self-cleavage": 0.229}
{"variant": "A44U A45G", "self-cleavage": 0.102}
{"variant": "A45G U62G", "self-cleavage": 0.12}
{"variant": "A45G U62A", "self-cleavage": 0.0572}
{"variant": "A47C U70A", "self-cleavage": 0.264}
{"variant": "C46G G57U", "self-cleavage": 0.167}
{"variant": "C46U U53C", "self-cleavage": 0.235}
{"variant": "C46A C65A", "self-cleavage": 0.13}
{"variant": "C46A C65G", "self-cleavage": 0.146}
{"variant": "C46A U67A", "self-cleavage": 0.122}
{"variant": "A45U U55C", "self-cleavage": 0.0822}
{"variant": "A45U U55G", "self-cleavage": 0.0773}
{"variant": "A47G U62G", "self-cleavage": 0.0586}
{"variant": "A47G U62C", "self-cleavage": 0.0615}
{"variant": "A44C C46G", "self-cleavage": 0.0995}
{"variant": "A44C C46U", "self-cleavage": 0.238}
{"variant": "A44C C46A", "self-cleavage": 0.141}
{"variant": "A44C G56A", "self-cleavage": 0.152}
{"variant": "A43U", "self-cleavage": 0.151}
{"variant": "A45C A49C", "self-cleavage": 0.142}
{"variant": "A45C A49G", "self-cleavage": 0.0463}
{"variant": "A47G C48G", "self-cleavage": 0.121}
{"variant": "A47C U67G", "self-cleavage": 0.123}
{"variant": "A47C U67C", "self-cleavage": 0.148}
{"variant": "A44G U53C", "self-cleavage": 0.248}
{"variant": "A44G U62A", "self-cleavage": 0.0675}
{"variant": "A44G U62G", "self-cleavage": 0.207}
{"variant": "A43G G51C", "self-cleavage": 0.107}
{"variant": "A43G G51A", "self-cleavage": 0.0738}
{"variant": "A44C A71U", "self-cleavage": 0.152}
{"variant": "A45C G57U", "self-cleavage": 0.249}
{"variant": "A45U G68A", "self-cleavage": 0.169}
{"variant": "A45U G68U", "self-cleavage": 0.258}
{"variant": "A44G A45C", "self-cleavage": 0.252}
{"variant": "A45G C50G", "self-cleavage": 0.109}
{"variant": "A47G C65U", "self-cleavage": 0.156}
{"variant": "A44G C46U", "self-cleavage": 0.139}
{"variant": "A44G C46A", "self-cleavage": 0.184}
{"variant": "A47G U67G", "self-cleavage": 0.0884}
{"variant": "A45C A64G", "self-cleavage": 0.259}
{"variant": "C46G G54U", "self-cleavage": 0.119}
{"variant": "C46G G54A", "self-cleavage": 0.134}
{"variant": "A47C U53A", "self-cleavage": 0.28}
{"variant": "C46U U55A", "self-cleavage": 0.115}
{"variant": "C46U U55G", "self-cleavage": 0.125}
{"variant": "C46U U55C", "self-cleavage": 0.0817}
{"variant": "C46A U62A", "self-cleavage": 0.132}
